# Results from patent US20250296959A1, “B7-H3 TARGETING PEPTIDES AND CONSTRUCTS THEREOF” (Mariana Oncology Inc., priority 2024, published 2025).
# Starred links: 1 amine or outer side, 2 acyl side, 3 side chain; linkers in the order of their positions; H or OH if unused. Positions of bridges follow the written chain, without caps; N, C: chain ends. Non-standard residues stand in square brackets, D forms with d. Groups on a side chain read outwards from the residue. Primed or numbered codes have the meaning given here. *: point of attachment. Ala(piperidin-4-yl) = O=C([C@H](CC1CCN([*:3])CC1)N[*:1])[*:2]; (2S,3S)βMePhe = C[C@@H](c1ccccc1)[C@H](N[*:1])C(=O)[*:2]; DOTA = O=C(O)CN1CCN(CC(=O)O)CCN(CC(=O)*)CCN(CC(=O)O)CC1; PipAla = piperidinyl-alanine residue (as named); Phe(4-COOH) = N[C@@H](Cc1ccc(C(=O)O)cc1)C(=O)O; Trp(5-F) = N[C@@H](Cc1c[nH]c2ccc(F)cc12)C(=O)O; hydroxyVal = hydroxy-valine residue (as named); PEG4′ = 4x 3-(2-aminoethoxy)propanoic acid; 1Nal = N[C@@H](Cc1cccc2ccccc12)C(=O)O; Ala(4-THP) = N[C@@H](CC1CCOCC1)C(=O)O; Val(3-OH) = CC(C)(O)[C@H](N)C(=O)O; 4Pal = N[C@@H](Cc1ccncc1)C(=O)O; Chg = N[C@H](C(=O)O)C1CCCCC1; Tle = CC(C)(C)[C@H](N)C(=O)O; hLeu = CC(C)CC[C@H](N)C(=O)O; Sar = CNCC(=O)O
# T1: B7-H3 on Calu-6 cells (human, UniProt Q5ZPR3 29-534)
# T1 construct: whole, on cells
# T1 sequence (looked up): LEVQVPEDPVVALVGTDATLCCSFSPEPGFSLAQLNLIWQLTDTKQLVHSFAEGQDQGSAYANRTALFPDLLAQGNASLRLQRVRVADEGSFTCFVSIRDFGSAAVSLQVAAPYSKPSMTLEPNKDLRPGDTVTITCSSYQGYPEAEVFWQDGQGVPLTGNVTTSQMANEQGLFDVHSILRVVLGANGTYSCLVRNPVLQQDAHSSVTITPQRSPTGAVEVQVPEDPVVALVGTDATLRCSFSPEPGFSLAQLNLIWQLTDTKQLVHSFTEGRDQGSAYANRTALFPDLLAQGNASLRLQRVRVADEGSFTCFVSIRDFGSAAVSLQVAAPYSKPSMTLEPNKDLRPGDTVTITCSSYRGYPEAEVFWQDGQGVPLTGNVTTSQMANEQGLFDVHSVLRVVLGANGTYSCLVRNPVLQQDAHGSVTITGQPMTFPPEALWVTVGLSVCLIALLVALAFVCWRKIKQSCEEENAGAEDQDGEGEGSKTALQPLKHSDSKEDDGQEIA
# Columns and labels:
# [1] = target: T1, B7-H3 on Calu-6 cells; test: 177Lu-labelled peptide on Calu-6 cells, % cell associated fraction; B = 25<%<=50
# [2] = target: T1, B7-H3 on Calu-6 cells; test: 177Lu-labelled peptide on Calu-6 cells, % cell associated fraction; C = >50%
# [3] = target: B7-H3 on Calu-6 cells (human) (UniProt Q5ZPR3); test: as above
Binder,% cell associated fraction [2] [%],also measured
Ac-[hLeu]YCV[Sar]KYDVYCWFT[dK](DOTA)-NH2 (disulfide 3-11; SMILES CC(=O)N[C@@H](CCC(C)C)C(=O)N[C@@H](Cc1ccc(O)cc1)C(=O)N[C@H]1CSSC[C@@H](C(=O)N[C@@H](Cc2c[nH]c3ccccc23)C(=O)N[C@@H](Cc2ccccc2)C(=O)N[C@H](C(=O)N[C@H](CCCCNC(=O)CN2CCN(CC(=O)O)CCN(CC(=O)O)CCN(CC(=O)O)CC2)C(N)=O)[C@@H](C)O)NC(=O)[C@H](Cc2ccc(O)cc2)NC(=O)[C@H](C(C)C)NC(=O)[C@H](CC(=O)O)NC(=O)[C@H](Cc2ccc(O)cc2)NC(=O)[C@H](CCCCN)NC(=O)CN(C)C(=O)[C@H](C(C)C)NC1=O) [Cpd 74],–,% cell associated fraction [1]: 25 to 50%
Ac-[hLeu]YCVGKYDVYC[Trp(5-F)]FT[dK](DOTA)-NH2 (disulfide 3-11; SMILES CC(=O)N[C@@H](CCC(C)C)C(=O)N[C@@H](Cc1ccc(O)cc1)C(=O)N[C@H]1CSSC[C@@H](C(=O)N[C@@H](Cc2c[nH]c3ccc(F)cc23)C(=O)N[C@@H](Cc2ccccc2)C(=O)N[C@H](C(=O)N[C@H](CCCCNC(=O)CN2CCN(CC(=O)O)CCN(CC(=O)O)CCN(CC(=O)O)CC2)C(N)=O)[C@@H](C)O)NC(=O)[C@H](Cc2ccc(O)cc2)NC(=O)[C@H](C(C)C)NC(=O)[C@H](CC(=O)O)NC(=O)[C@H](Cc2ccc(O)cc2)NC(=O)[C@H](CCCCN)NC(=O)CNC(=O)[C@H](C(C)C)NC1=O) [Cpd 73],> 50,–
Ac-[hLeu]YCVGKYDVYC[Trp(5-F)]FP[dK](DOTA)-NH2 (disulfide 3-11) [Cpd 160],–,% cell associated fraction [1]: 25 to 50%
Ac-[hLeu]YCVG[Ala(piperidin-4-yl)][Phe(4-COOH)]DVYC[Trp(5-F)]FP[dK](DOTA)-NH2 (disulfide 3-11; SMILES CC(=O)N[C@@H](CCC(C)C)C(=O)N[C@@H](Cc1ccc(O)cc1)C(=O)N[C@H]1CSSC[C@@H](C(=O)N[C@@H](Cc2c[nH]c3ccc(F)cc23)C(=O)N[C@@H](Cc2ccccc2)C(=O)N2CCC[C@H]2C(=O)N[C@H](CCCCNC(=O)CN2CCN(CC(=O)O)CCN(CC(=O)O)CCN(CC(=O)O)CC2)C(N)=O)NC(=O)[C@H](Cc2ccc(O)cc2)NC(=O)[C@H](C(C)C)NC(=O)[C@H](CC(=O)O)NC(=O)[C@H](Cc2ccc(C(=O)O)cc2)NC(=O)[C@H](CC2CCNCC2)NC(=O)CNC(=O)[C@H](C(C)C)NC1=O) [Cpd 286],> 50,–
Ac-[hLeu]YC[Tle]GKYDVYCWFT[dK](DOTA)-NH2 (disulfide 3-11; SMILES CC(=O)N[C@@H](CCC(C)C)C(=O)N[C@@H](Cc1ccc(O)cc1)C(=O)N[C@H]1CSSC[C@@H](C(=O)N[C@@H](Cc2c[nH]c3ccccc23)C(=O)N[C@@H](Cc2ccccc2)C(=O)N[C@H](C(=O)N[C@H](CCCCNC(=O)CN2CCN(CC(=O)O)CCN(CC(=O)O)CCN(CC(=O)O)CC2)C(N)=O)[C@@H](C)O)NC(=O)[C@H](Cc2ccc(O)cc2)NC(=O)[C@H](C(C)C)NC(=O)[C@H](CC(=O)O)NC(=O)[C@H](Cc2ccc(O)cc2)NC(=O)[C@H](CCCCN)NC(=O)CNC(=O)[C@H](C(C)(C)C)NC1=O) [Cpd 72],> 50,–
Ac-[hLeu]YCVGKYDVYC[1Nal]FT[dK](DOTA)-NH2 (disulfide 3-11; SMILES CC(=O)N[C@@H](CCC(C)C)C(=O)N[C@@H](Cc1ccc(O)cc1)C(=O)N[C@H]1CSSC[C@@H](C(=O)N[C@@H](Cc2cccc3ccccc23)C(=O)N[C@@H](Cc2ccccc2)C(=O)N[C@H](C(=O)N[C@H](CCCCNC(=O)CN2CCN(CC(=O)O)CCN(CC(=O)O)CCN(CC(=O)O)CC2)C(N)=O)[C@@H](C)O)NC(=O)[C@H](Cc2ccc(O)cc2)NC(=O)[C@H](C(C)C)NC(=O)[C@H](CC(=O)O)NC(=O)[C@H](Cc2ccc(O)cc2)NC(=O)[C@H](CCCCN)NC(=O)CNC(=O)[C@H](C(C)C)NC1=O) [Cpd 158],> 50,–
Ac-[hLeu]YCIGK[Ala(4-THP)]DVYC[Trp(5-F)]F[Val(3-OH)][dK]([PEG4′-DOTA])-OH (disulfide 3-11) [Cpd 308],> 50,–
Ac-[hLeu]YC[Tle]GKYDVYC[Trp(5-F)]FT[dK](DOTA)-NH2 (disulfide 3-11; SMILES CC(=O)N[C@@H](CCC(C)C)C(=O)N[C@@H](Cc1ccc(O)cc1)C(=O)N[C@H]1CSSC[C@@H](C(=O)N[C@@H](Cc2c[nH]c3ccc(F)cc23)C(=O)N[C@@H](Cc2ccccc2)C(=O)N[C@H](C(=O)N[C@H](CCCCNC(=O)CN2CCN(CC(=O)O)CCN(CC(=O)O)CCN(CC(=O)O)CC2)C(N)=O)[C@@H](C)O)NC(=O)[C@H](Cc2ccc(O)cc2)NC(=O)[C@H](C(C)C)NC(=O)[C@H](CC(=O)O)NC(=O)[C@H](Cc2ccc(O)cc2)NC(=O)[C@H](CCCCN)NC(=O)CNC(=O)[C@H](C(C)(C)C)NC1=O) [Cpd 76],> 50,–
"Ac-[hLeu]YC[Tle]G[PipAla][PipAla]([PEG4′-DOTA])DVYC[Trp(5-F)][(2S,3S)βMePhe][Val(3-OH)][dE]-NH2 (disulfide 3-11 (inferred)) [Cpd 495]",–,% cell associated fraction [3]: > 50%
Ac-[hLeu]YCVGK[Ala(4-THP)]DVYC[Trp(5-F)]FT[dK](DOTA)-NH2 (disulfide 3-11; SMILES CC(=O)N[C@@H](CCC(C)C)C(=O)N[C@@H](Cc1ccc(O)cc1)C(=O)N[C@H]1CSSC[C@@H](C(=O)N[C@@H](Cc2c[nH]c3ccc(F)cc23)C(=O)N[C@@H](Cc2ccccc2)C(=O)N[C@H](C(=O)N[C@H](CCCCNC(=O)CN2CCN(CC(=O)O)CCN(CC(=O)O)CCN(CC(=O)O)CC2)C(N)=O)[C@@H](C)O)NC(=O)[C@H](Cc2ccc(O)cc2)NC(=O)[C@H](C(C)C)NC(=O)[C@H](CC(=O)O)NC(=O)[C@H](CC2CCOCC2)NC(=O)[C@H](CCCCN)NC(=O)CNC(=O)[C@H](C(C)C)NC1=O) [Cpd 200],> 50,–
Ac-[hLeu]YC[Tle]G[PipAla][PipAla]([PEG4′-DOTA])DVYC[Trp(5-F)]F[hydroxyVal][dA]-OH (disulfide 3-11 (inferred)) [Cpd 455],–,% cell associated fraction [3]: > 50%
Ac-[hLeu]YCV[Sar]KYDVYC[Trp(5-F)]FT[dK](DOTA)-NH2 (disulfide 3-11; SMILES CC(=O)N[C@@H](CCC(C)C)C(=O)N[C@@H](Cc1ccc(O)cc1)C(=O)N[C@H]1CSSC[C@@H](C(=O)N[C@@H](Cc2c[nH]c3ccc(F)cc23)C(=O)N[C@@H](Cc2ccccc2)C(=O)N[C@H](C(=O)N[C@H](CCCCNC(=O)CN2CCN(CC(=O)O)CCN(CC(=O)O)CCN(CC(=O)O)CC2)C(N)=O)[C@@H](C)O)NC(=O)[C@H](Cc2ccc(O)cc2)NC(=O)[C@H](C(C)C)NC(=O)[C@H](CC(=O)O)NC(=O)[C@H](Cc2ccc(O)cc2)NC(=O)[C@H](CCCCN)NC(=O)CN(C)C(=O)[C@H](C(C)C)NC1=O) [Cpd 77],> 50,–
Ac-[hLeu]YCVGKYD[Chg]YC[Trp(5-F)]FT[dK](DOTA)-NH2 (disulfide 3-11) [Cpd 215],> 50,–
Ac-[hLeu]YCVGK[4Pal]D[Chg]YC[Trp(5-F)]FT[dK](DOTA)-NH2 (disulfide 3-11; SMILES CC(=O)N[C@@H](CCC(C)C)C(=O)N[C@@H](Cc1ccc(O)cc1)C(=O)N[C@H]1CSSC[C@@H](C(=O)N[C@@H](Cc2c[nH]c3ccc(F)cc23)C(=O)N[C@@H](Cc2ccccc2)C(=O)N[C@H](C(=O)N[C@H](CCCCNC(=O)CN2CCN(CC(=O)O)CCN(CC(=O)O)CCN(CC(=O)O)CC2)C(N)=O)[C@@H](C)O)NC(=O)[C@H](Cc2ccc(O)cc2)NC(=O)[C@H](C2CCCCC2)NC(=O)[C@H](CC(=O)O)NC(=O)[C@H](Cc2ccncc2)NC(=O)[C@H](CCCCN)NC(=O)CNC(=O)[C@H](C(C)C)NC1=O) [Cpd 190],> 50,–
Ac-[hLeu]YC[Tle]GK[Pip(PEG4-DOTA)Ala]DVYC[Trp(5-F)]F[Val(3-OH)][dS]-NH2 (disulfide 3-11 (inferred)) [Cpd 408],–,% cell associated fraction [3]: > 50%
